Results taken from patent publication US20210395346A1 (SEOUL NATIONAL UNIVERSITY R AND DB FOUNDATION, published 2021).

How the values were obtained:
[1] = target: T1, SARS-CoV-2 RBD variant E484K (New York) (SARS-CoV-2, UniProt P0DTC2 319-541); test: ELISA (FIG. 18C)
T1 construct: domain: RBD

[2] = target: T2, SARS-CoV-2 RBD variant S477N (New York) (SARS-CoV-2, UniProt P0DTC2 319-541); test: ELISA (FIG. 18C)
T2 construct: domain: RBD

[3] = target: T3, SARS-CoV-2 RBD variant N501Y (UK) (SARS-CoV-2, UniProt P0DTC2 319-541); test: ELISA (FIG. 18C)
T3 construct: domain: RBD

[4] = target: T4, SARS-CoV-2 RBD variant K417N, E484K, N501Y (South Africa) (SARS-CoV-2, UniProt P0DTC2 319-541); test: ELISA (FIG. 18C)
T4 construct: domain: RBD

[5] = target: T5, SARS-CoV-2 RBD variant L452R (California) (SARS-CoV-2, UniProt P0DTC2 319-541); test: ELISA (FIG. 18C)
T5 construct: domain: RBD

[6] = target: T6, SARS-CoV-2 RBD variant E484Q, L452R (India) (SARS-CoV-2, UniProt P0DTC2 319-541); test: ELISA (FIG. 18C)
T6 construct: domain: RBD

[7] = target: T7, SARS-CoV-2 RBD variant K417T, E484K, N501Y (Brazil) (SARS-CoV-2, UniProt P0DTC2 319-541); test: ELISA (FIG. 18C)
T7 construct: domain: RBD

[8] = target: T8, SARS-CoV-2 RBD variant K417V, N439K (Europe) (SARS-CoV-2, UniProt P0DTC2 319-541); test: ELISA (FIG. 18C)
T8 construct: domain: RBD

[9] = target: T9, SARS-CoV-2 RBD variant N439K (Europe) (SARS-CoV-2, UniProt P0DTC2 319-541); test: ELISA (FIG. 18C)
T9 construct: domain: RBD

[10] = target: T1, SARS-CoV-2 RBD variant E484K (New York); test: ELISA (FIG. 18E)
[11] = target: T2, SARS-CoV-2 RBD variant S477N (New York); test: ELISA (FIG. 18E)
[12] = target: T3, SARS-CoV-2 RBD variant N501Y (UK); test: ELISA (FIG. 18E)
[13] = target: T4, SARS-CoV-2 RBD variant K417N, E484K, …; test: ELISA (FIG. 18E)
[14] = target: T5, SARS-CoV-2 RBD variant L452R …; test: ELISA (FIG. 18E)
[15] = target: T6, SARS-CoV-2 RBD variant E484Q, L452R …; test: ELISA (FIG. 18E)
[16] = target: T7, SARS-CoV-2 RBD variant K417T, E484K, …; test: ELISA (FIG. 18E)
[17] = target: T8, SARS-CoV-2 RBD variant K417V, N439K …; test: ELISA (FIG. 18E)
[18] = target: T9, SARS-CoV-2 RBD variant N439K (Europe); test: ELISA (FIG. 18E)
[19] = target: T1, SARS-CoV-2 RBD variant E484K (New York); test: ELISA (FIG. 18B)
[20] = target: T2, SARS-CoV-2 RBD variant S477N (New York); test: ELISA (FIG. 18B)
[21] = target: T3, SARS-CoV-2 RBD variant N501Y (UK); test: ELISA (FIG. 18B)
[22] = target: T4, SARS-CoV-2 RBD variant K417N, E484K, …; test: ELISA (FIG. 18B)
[23] = target: T5, SARS-CoV-2 RBD variant L452R …; test: ELISA (FIG. 18B)
[24] = target: T6, SARS-CoV-2 RBD variant E484Q, L452R …; test: ELISA (FIG. 18B)
[25] = target: T7, SARS-CoV-2 RBD variant K417T, E484K, …; test: ELISA (FIG. 18B)
[26] = target: T8, SARS-CoV-2 RBD variant K417V, N439K …; test: ELISA (FIG. 18B)
[27] = target: T9, SARS-CoV-2 RBD variant N439K (Europe); test: ELISA (FIG. 18B)
[28] = target: T1, SARS-CoV-2 RBD variant E484K (New York); test: ELISA (FIG. 18A)
[29] = target: T2, SARS-CoV-2 RBD variant S477N (New York); test: ELISA (FIG. 18A)
[30] = target: T3, SARS-CoV-2 RBD variant N501Y (UK); test: ELISA (FIG. 18A)
[31] = target: T4, SARS-CoV-2 RBD variant K417N, E484K, …; test: ELISA (FIG. 18A)
[32] = target: T5, SARS-CoV-2 RBD variant L452R …; test: ELISA (FIG. 18A)
[33] = target: T6, SARS-CoV-2 RBD variant E484Q, L452R …; test: ELISA (FIG. 18A)
[34] = target: T7, SARS-CoV-2 RBD variant K417T, E484K, …; test: ELISA (FIG. 18A)
[35] = target: T8, SARS-CoV-2 RBD variant K417V, N439K …; test: ELISA (FIG. 18A)
[36] = target: T9, SARS-CoV-2 RBD variant N439K (Europe); test: ELISA (FIG. 18A)

Measured: binding result

B1: A-2H4 antibody (format in FIG. 18 not stated) (antibody, V domains shown)
VH: QMQLVESGGGLVQPGRSLRLSCAASGFTFSVYGMHWVRQAPGKGLEWVAVISYDGSNKYYADSVKGRFSISRDNSKNTLYLQMNSLRGEDTAVYYCAKGGPRPVVKAYGELDYYGMDVWGQGTTVTVSS
VL: ELALTQPASVSGSPGQSITISCTGTSSDIGGYEYVSWYQQHPGKAPKLIIYDVRDRPSGISNRFSGSKSGNTASLIISSLQAGDEADYYCFSYTSSGTYVFGSATKVTVL
binds: [1] | [2] | [3] | [4] | [5] | [6] | [7] | [8] | [9]

B2: E-3G9 antibody (format in FIG. 18 not stated) (antibody, V domains shown)
VH: QMQLVQSGAEVKKPGASVKVSCKASGHTITSYYMHWVRQAPGQGLEWMGIINPSGGSTSYAQKFQGRVTMTRDTSTSTVYMELSSLRSEDTAVYYCAREGVWDSSGYSSFDYWGQGTLVTVSS
VL: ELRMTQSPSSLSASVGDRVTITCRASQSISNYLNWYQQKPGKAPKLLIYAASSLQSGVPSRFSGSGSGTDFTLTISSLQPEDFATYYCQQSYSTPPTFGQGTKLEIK
binds: [10] | [11] | [12] | [13] | [14] | [15] | [16] | [17] | [18]

B3: A-2F1 antibody (format in FIG. 18 not stated) (antibody, V domains shown)
VH: QVQLVQSGGGLIQPGGSLRLSCAASGVTVSSNYMSWVRQAPGKGLEWVSVIYSGGSTFYADSVKGRFTISRDNSKNTLYLQMNSLRAEDTAVYYCARDLMEAGGMDVWGQGSTVTVSS
VL: ELALTQPPSASGSPGQSVTISCTASSSDIGASNHVAWYQQNPGKAPKLMIYGVSGRPSGVPDRFSGSKSGNTASLTVSGLQAEDEADYYCSSYAGSNILIFGGGTKLTVL
binds: [19] | [20] | [21] | [22] | [23] | [24] | [25] | [26] | [27]

B4: A-1H4 antibody (format in FIG. 18 not stated) (antibody, V domains shown)
VH: EVQLVESGGGLVQPGRSLRLSCAASGFTVSSNYMSWVRQAPGKGLEWVSGIYSGGSTYYADSVKGRFTISRDNSKNTLYLQMNSLRAEDTAVYYCARDLQEAGAFDIWGQGTMVTVSS
VL: ELQLTQSPSFLSASVGDRVTITCRASQGISSYLAWYQQKPGKAPKLLIYAASTLQSGVPSRFSGSGSGTEFTLTISSLQPEDFATYYCQQLNSYPRLTFGGGTKVEIK
binds: [28] | [29] | [30] | [31] | [32] | [33] | [34] | [35] | [36]
